In US20250002563A1 (UNIVERSITY OF PITTSBURGH OF THE COMMONWEALTH SYSTEM OF …, published 2025):
Where a chain is given by its changes, count along the chain named.

Columns and labels:
[1] = target: recombinant RBD of the SARS-CoV-2 S protein (Example 1) (SARS-CoV-2, UniProt P0DTC2 319-541); test: SPR, RBD immobilized on CM5
[2] = target: SARS-CoV-2 spike on pseudotyped virus particles (Wuhan-Hu-1 strain) (SARS-CoV-2, UniProt P0DTC2 14-1273); test: cell-based or functional assay
[3] = target: T1, RBDSARS-CoV-2 (SARS-CoV-2 S protein residues 319-539, C-terminal His-tag) (SARS-CoV-2, UniProt P0DTC2 319-539); test: ELISA
[4] = target: T2, RBDSARS-CoV (SARS-CoV S protein residues 318-510, C-terminal His-tag) (SARS-CoV, UniProt P59594 318-510); test: ELISA
[5] = target: spike of SARS-CoV-2 Munich strain (authentic virus) (SARS-CoV-2); test: cell-based or functional assay
[6] = target: T1, RBDSARS-CoV-2 (SARS-CoV-2 S protein …); test: SPR, RBD immobilized on CM5
[7] = target: T2, RBDSARS-CoV (SARS-CoV S protein …); test: SPR, RBD immobilized on CM5

B1: Nb89 (VHH)
VHH: HVQLVESGGGLVQAGGSLRLSCAASGGTFTTFRMAWFRQTPGKEREFVAASSWGFVNYADPVKGRFTISRDNAKNTVYLEMSSLKTEDTAVYYCAARNPGTGQYDYWGQGTQVTVSS
Kd [1]: 0.108 nM | IC50, pseudotyped SARS-CoV-2 neutralization assay (luciferase) [2]: 0.129 nM

B2: 5p-38 (VHH)
VHH: QVQLVESGGGLVQAGGSLRLSCAAAARFSTSAMGWFRQAPGKEREFVAAISWSNTNTHYADTVKGRFTISADTAKETVDLQMNSLKPEDTAVYYCVQGGWGIRQPIIVDYWGKGTQVTVSS
notes: class II(B) psNb
IC50 [3]: < 10 nM | IC50 [4]: < 10 nM | PRNT SARS-CoV-2 Munich IC50 [5]: 59.9 nM

B3: 5p-60 (VHH)
VHH: QVQLVESGGGLVQAGGSLRLSCAVSGRTISTFGMGWFRQAPGKEREFVATITRDEDMLLYADSVKGRFTISRDTAKNMVFLQMNSLKIEDTALYYCAVRRDSSWGYSRQSTEYDYWGQGTQVTVSS
notes: class II(A) psNb
IC50 [3]: < 10 nM | IC50 [4]: < 10 nM | PRNT SARS-CoV-2 Munich IC50 [5]: 9.79 nM

B4: Nb20 (VHH)
VHH: QVQLVESGGGLVQAGGSLRLSCAVSGAGAHRVGWFRRAPGKEREFVAAIGASGGMTNYLDSVKGRFTISRDNAKNTIYLQMNSLKPQDTAVYYCAARDIETAEYIYWGQGTQVTVSS
IC50, pseudotyped SARS-CoV-2 neutralization assay (luciferase) [2]: 0.102 nM

B5: 5p-118 (VHH)
VHH: QVQLVESGGGLVQAGESLRLSCAASKPTFRNFAAGWFRQTPGKDREFVAVIEYDGDSAYYADSVKGRFTISRDNAKNTVYLQMNRLKPGDTAVYICAIGGNHYDPSKYYTADEYDYWGQGTQVTVSS
notes: class II(B) psNb
Kd [6]: < 0.001 nM | Kd [7]: 0.00396 nM | IC50 [3]: < 10 nM | IC50 [4]: < 10 nM | PRNT SARS-CoV-2 Munich IC50 [5]: 7.41 nM

B6: Nb21 (VHH)
VHH: B4 VHH with A27L, S52N, M55N, I105T
IC50, pseudotyped SARS-CoV-2 neutralization assay (luciferase) [2]: 0.045 nM

B7: 5p-132 (VHH)
VHH: QVQLVESGGGLVQAGGSLRLSCTASGYDFSILAIAWYRQAPGKERELVAAISRVGSTDYADSVKGRFTISRDNTKNTVSLQMDSLKPEDTAVYYCNAGIPMTTVLSGLGFWGQGTQVTVSS
notes: class IV psNb
Kd [6]: 0.39 nM | Kd [7]: 304 nM | IC50 [3]: < 10 nM
